Data: US20180038860A1 (published 2018)
Read-outs that look alike come from different tables or passages of the source. Blank lines part the entries; values can stand above or below the molecule they belong to. Bridge positions count the residues as written; N and C are the ends. Side chains are listed from the residue outwards. * marks the point of attachment. Biotin = O=C1N[C@H]2[C@H](CS[C@H]2CCCCC(=O)*)N1; AEEA = NCCOCCOCC(=O)O

How the values were obtained:
Experiment in all cases: cell-based or functional assay
hCCR9 (human) = hCCR9 (human) (UniProt P51686)
[1] = molecular target: T1, CCR6 on lymphocytes in blood of healthy donors (human) (UniProt P51684)
T1 sequence (looked up): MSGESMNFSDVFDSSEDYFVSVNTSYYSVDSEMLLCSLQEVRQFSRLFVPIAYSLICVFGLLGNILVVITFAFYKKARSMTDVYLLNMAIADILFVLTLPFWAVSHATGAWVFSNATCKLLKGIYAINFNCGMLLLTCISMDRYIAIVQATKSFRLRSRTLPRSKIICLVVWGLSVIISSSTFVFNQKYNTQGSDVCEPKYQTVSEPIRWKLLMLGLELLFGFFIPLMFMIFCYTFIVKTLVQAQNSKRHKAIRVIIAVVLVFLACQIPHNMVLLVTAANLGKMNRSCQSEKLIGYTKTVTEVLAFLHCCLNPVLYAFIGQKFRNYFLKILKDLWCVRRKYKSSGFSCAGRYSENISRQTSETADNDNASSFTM

hCXCR3 (human) [2] = molecular target: hCXCR3 (human) (UniProt P49682)
hCCR2b (human) = hCCR2b (human) (UniProt P41597)
hCCR6 (human) = molecular target: T2, hCCR6 (human) (UniProt P51684)
T2 sequence (looked up): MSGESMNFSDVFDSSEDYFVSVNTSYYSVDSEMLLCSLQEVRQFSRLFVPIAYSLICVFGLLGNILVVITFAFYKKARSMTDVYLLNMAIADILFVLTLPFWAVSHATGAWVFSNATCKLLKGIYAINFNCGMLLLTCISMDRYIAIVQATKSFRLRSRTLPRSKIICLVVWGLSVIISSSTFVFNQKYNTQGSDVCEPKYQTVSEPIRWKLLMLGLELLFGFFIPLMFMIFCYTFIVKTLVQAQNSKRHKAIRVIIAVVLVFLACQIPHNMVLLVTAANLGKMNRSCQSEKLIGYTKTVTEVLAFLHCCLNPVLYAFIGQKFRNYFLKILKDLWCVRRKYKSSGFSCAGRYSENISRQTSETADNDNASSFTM

hCCR7 (human) = hCCR7 (human) (UniProt P32248)
hCCR4 = molecular target: T3, hCCR4 (human, UniProt P51679 1-360)
T3 sequence (looked up): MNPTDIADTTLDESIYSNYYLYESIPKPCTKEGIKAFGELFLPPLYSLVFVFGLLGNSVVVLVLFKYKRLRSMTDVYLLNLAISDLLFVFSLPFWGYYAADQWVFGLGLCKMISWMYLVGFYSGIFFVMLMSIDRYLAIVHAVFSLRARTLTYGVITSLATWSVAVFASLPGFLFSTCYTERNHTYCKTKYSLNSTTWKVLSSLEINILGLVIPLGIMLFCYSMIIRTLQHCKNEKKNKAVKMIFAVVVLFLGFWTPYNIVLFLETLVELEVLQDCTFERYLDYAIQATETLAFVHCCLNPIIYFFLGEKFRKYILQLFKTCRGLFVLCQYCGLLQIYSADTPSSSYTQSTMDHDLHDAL

hCXCR3 (human) [3] = molecular target: hCXCR3 (human) (UniProt P49682); remark: listed apart in the source
hCCR10 = molecular target: T4, hCCR10 (human, UniProt P46092 1-362)
T4 sequence (looked up): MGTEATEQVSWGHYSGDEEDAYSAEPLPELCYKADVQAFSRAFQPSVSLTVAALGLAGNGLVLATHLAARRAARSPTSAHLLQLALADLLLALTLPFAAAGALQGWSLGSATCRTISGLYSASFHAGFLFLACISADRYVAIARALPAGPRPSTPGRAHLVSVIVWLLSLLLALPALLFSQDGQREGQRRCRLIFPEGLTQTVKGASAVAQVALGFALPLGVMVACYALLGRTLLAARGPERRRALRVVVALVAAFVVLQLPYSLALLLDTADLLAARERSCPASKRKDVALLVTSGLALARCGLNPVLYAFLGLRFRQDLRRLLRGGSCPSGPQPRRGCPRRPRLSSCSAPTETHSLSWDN

Chain of hCCR9 (human) (P51686 whole entry): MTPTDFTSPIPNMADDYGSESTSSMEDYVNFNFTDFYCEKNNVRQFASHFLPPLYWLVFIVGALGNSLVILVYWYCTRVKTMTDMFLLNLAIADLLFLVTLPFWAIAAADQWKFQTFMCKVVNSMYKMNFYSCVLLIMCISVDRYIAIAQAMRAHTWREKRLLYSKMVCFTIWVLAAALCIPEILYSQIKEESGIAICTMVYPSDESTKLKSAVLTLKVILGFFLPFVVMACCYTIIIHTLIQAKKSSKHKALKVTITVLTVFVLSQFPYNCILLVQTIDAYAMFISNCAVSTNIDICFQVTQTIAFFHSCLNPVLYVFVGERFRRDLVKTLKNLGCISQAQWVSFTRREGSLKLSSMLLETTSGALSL
Chain of hCXCR3 (human) (P49682 whole entry): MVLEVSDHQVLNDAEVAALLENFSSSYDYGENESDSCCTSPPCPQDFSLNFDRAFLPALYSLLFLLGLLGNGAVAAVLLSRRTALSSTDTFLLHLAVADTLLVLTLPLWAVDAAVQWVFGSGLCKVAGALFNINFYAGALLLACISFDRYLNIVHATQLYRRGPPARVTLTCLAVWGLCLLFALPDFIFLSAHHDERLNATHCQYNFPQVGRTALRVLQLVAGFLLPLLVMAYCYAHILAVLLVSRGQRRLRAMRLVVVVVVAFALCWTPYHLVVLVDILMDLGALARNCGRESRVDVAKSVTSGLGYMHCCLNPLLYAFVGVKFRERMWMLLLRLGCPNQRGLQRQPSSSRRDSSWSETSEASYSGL
Chain of hCCR7 (human) (P32248 25-378 limits assumed): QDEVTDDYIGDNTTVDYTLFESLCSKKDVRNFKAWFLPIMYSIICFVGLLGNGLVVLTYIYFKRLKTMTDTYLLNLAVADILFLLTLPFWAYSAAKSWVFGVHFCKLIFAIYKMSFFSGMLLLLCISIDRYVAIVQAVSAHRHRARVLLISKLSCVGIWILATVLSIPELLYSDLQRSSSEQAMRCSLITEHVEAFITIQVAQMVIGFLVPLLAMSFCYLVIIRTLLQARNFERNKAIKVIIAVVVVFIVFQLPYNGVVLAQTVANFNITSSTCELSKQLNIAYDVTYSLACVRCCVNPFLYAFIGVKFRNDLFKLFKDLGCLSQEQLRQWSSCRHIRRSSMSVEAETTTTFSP
Chain of hCCR2b (human) (P41597 other isoform, or with tags, fused parts or gaps limits assumed): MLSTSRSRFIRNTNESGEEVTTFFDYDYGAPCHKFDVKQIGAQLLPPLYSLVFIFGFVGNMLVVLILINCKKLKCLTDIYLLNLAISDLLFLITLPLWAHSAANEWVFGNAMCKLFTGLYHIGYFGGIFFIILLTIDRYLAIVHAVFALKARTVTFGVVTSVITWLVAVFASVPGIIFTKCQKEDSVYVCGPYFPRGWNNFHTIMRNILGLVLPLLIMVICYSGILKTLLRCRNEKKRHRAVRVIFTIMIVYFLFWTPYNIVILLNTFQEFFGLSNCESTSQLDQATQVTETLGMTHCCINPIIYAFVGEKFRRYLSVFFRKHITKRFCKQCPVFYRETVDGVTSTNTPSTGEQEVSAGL

Molecule: biotinTECK(Met to Nleu substitution) (CCL25), derivatised at the ε-amino side chain functionality of Lys72 with PEG-Biotin (from UniProt O15444 25-97) (ligand)
EC50, Aequorin assay (agonist activity) (hCCR9 (human)): 63.6 nM

Molecule: recombinant native IP-10 (from UniProt P02778 22-98) (ligand)
EC50, Aequorin assay (agonist activity) (hCXCR3 (human) [2]): 4.4 nM

Molecule: recombinant native MIP-3α (from UniProt P78556 27-96) (ligand)
EC50, Aequorin assay (agonist activity) (hCCR6 (human)): 1 nM

Molecule: recombinant native MIP-3β (from UniProt Q99731 22-98) (ligand)
EC50, Aequorin assay (agonist activity) (hCCR7 (human)): 1.6 nM

Molecule: recombinant native TARC (from UniProt Q92583 24-94) (ligand)
EC50, Aequorin assay (agonist activity) (hCCR4): 2.6 nM

B4: recombinant native CTAC (ligand, UniProt Q9Y4X3 25-112, looked up)
chain: FLLPPSTACCTQLYRKPLSDKLLRKVIQVELQEADGDCHLQAFVLHLAQRSICIHPQNPSLSQWFEHQERKLHGTLPKLNFGMLRKMG
EC50, Aequorin assay (agonist activity) (hCCR10): 33.5 nM

B5: biotinTARC (CCL17), TARC derivatised at the ε-amino side chain functionality of Lys(72) with PEG-Biotin (ligand)
chain: ARGTNVGRECCLEYFKGAIPLRKLKTWYQTSEDCSRDAIVFVTVQGRAICSDPNNKRVKNAVKYLQSLERSK([AEEA-Biotin])-NH2
modifications: disulfide 10-34, 11-50; ends not checked; also: TFA salt
EC50, Aequorin assay (agonist activity) (hCCR4): 3.1 nM

The next lines start with the values.

reduction of CCR6-expressing cells after column passage (flow cytometry) [1]: < 15%
Molecule: biotinylated MIP-3alpha coupled matrix (from UniProt P78556 27-96) (ligand)

EC50, Aequorin assay (partial agonist) (hCCR2b (human)): 23.5 nM
Molecule: recombinant native MCP-2 (from UniProt P80075 24-99) (ligand)

EC50, Aequorin assay (agonist activity) (hCCR9 (human)): 67.9 nM
Molecule: recombinant native TECK (from UniProt O15444 24-150) (ligand)

EC50, Aequorin assay (agonist activity) (hCCR4): 3.6 nM
B1: recombinant native MDC (ligand, UniProt O00626 25-93, looked up)
chain: GPYGANMEDSVCCRDYVRYRLPLRVVKHFYWTSDSCPRPGVVLLTFRDKEICADPRVPWVKMILNKLSQ

EC50, Aequorin assay (agonist activity) (hCXCR3 (human) [3]): 0.7 nM
B2: recombinant native ITAC (ligand, UniProt O14625 22-94, looked up)
chain: FPMFKRGRCLCIGPGVKAVKVADIEKASIMYPSNNCDKIEVIITLKENKGQRCLNPKSKQARLIIKKVERKNF

EC50, Aequorin assay (agonist activity) (hCCR10): 49.4 nM
B3: biotinCTAC (CCL27), CTAC derivatised at the ε-amino side chain functionality of Lys(87) with PEG-Biotin (ligand)
chain: FLLPPSTACCTQLYRKPLSDKLLRKVIQVELQEADGDCHLQAFVLHLAQRSICIHPQNPSLSQWFEHQERKLHGTLPKLNFGMLRKK([AEEA-Biotin])G-OH
modifications: disulfide 10-53, 9-38; ends not checked; also: TFA salt
